Legend:
[1] = test system: L. monocytogenes ATCC 19114; assay: Effect of organic solvents on antimicrobial activity; type: physicochemical, Listeria monocytogenes; conditions: 2 h at 37°C, residual activity against L. monocytogenes ATCC 19114
Procedure: (§1) To evaluate pH stability, the pH of crude bacteriocin solution was adjusted with 1 N HCl and 1 N NaOH and readjusted to pH 7 after incubation for 2 h at 37°C. To evaluate thermal stability, the crude bacteriocin solution was incubated at 4, 37, 50, 80, and 100°C for 15–30 minutes. All samples were cooled to room temperature before activity assays. To analyze sensitivity to various enzymes, the crude bacteriocin solution was treated at 37°C for 2 h with 10 mg/mL (final concentration) of the following enzymes: α-amylase, α-chymotrypsin, lipase, proteinase-K, pepsin, or trypsin. All enzymes used were from Sigma (USA) and Takara (Japan). The samples were then boiled for 2 min to denature the enzymes and cooled to room temperature. Samples were exposed to various organic solvents at a final concentration of 10% (v/v) to explore their effects on bacteriocin activity. After incubation for 2 h at 37°C, the residual activity was recorded. All treated samples were tested for residual activity against L. monocytogenes ATCC 19114, as described above.

[2] = test system: L. monocytogenes ATCC 19114; assay: pH stability of antimicrobial activity; type: physicochemical, Listeria monocytogenes; conditions: for Residual activity (%): 2 h at 37°C, residual activity against L. monocytogenes ATCC 19114
Procedure: as §1

[3] = test system: Lactobacillus salivarius CPM7 (our isolate); assay: Agar well diffusion assay; type: cell-based; conditions: cell-free supernatant, medium MRS
Procedure: (§2) Soil samples were collected from a farm in Cheonan city, Korea. They were mixed with sterile water (1 : 10, w/v), homogenized, and heated at 50°C for 60 min in a water bath. One mL of this suspension was inoculated into 100 mL of tryptic soy broth (Difco, USA) and incubated at 50°C for 24 h, after which microbial growth was monitored based on changes in turbidity of the cultures. Aliquots of the cultures were inoculated onto TSB plates, incubated at 30°C, and single colonies were isolated and screened for antimicrobial activity. The antimicrobial activity was performed according to Ramachandran et al. with modifications. It was expressed as the diameter of the inhibition zones around the wells using agar well diffusion assays with Listeria monocytogenes ATCC 19114 as the indicator strain.
(§3) Antimicrobial activity was detected using the agar well diffusion assay and tested against all indicator strains (Table 1) grown in their respective media, as indicated (Difco, USA). An aliquot of culture was centrifugated at 6,000 g for 15 min at 4°C (Mega 21R, Hanil Co., Republic of Korea), filtered using 0.45 μm pore-size cellulose acetate syringe filters (Advantec Co., Japan) to remove cells, then applied to wells on agar plates. Experiments were done in no less than five individual trials having no less than three replications.
(§4) The plates were incubated at the optimal temperature of the test organism. The bacteriocin titer was determined using the serial twofold dilution method. Activity was defined as the reciprocal of the dilution after the last serial dilution giving a zone of inhibition and was expressed as activity units (AU) per milliliter. All measurements were done in triplicate and the means are shown as the results.

[4] = test system: Lactobacillus plantarum KCCM 11322; assay: Agar well diffusion assay; type: cell-based; conditions: cell-free supernatant, medium MRS
Procedure: as §2, §3, §4

[5] = test system: Salmonella gallinarum KVCC-BA0700722; assay: Agar well diffusion assay; type: cell-based; conditions: cell-free supernatant, medium NB
Procedure: as §2, §3, §4

Escherichia coli K88 = assay: Agar well diffusion assay; type: cell-based; conditions: cell-free supernatant, medium LB
Procedure: as §2, §3, §4

[6] = test system: Staphylococcus aureus subsp. aureus (MRSA) KCCM 40510; assay: Agar well diffusion assay; type: cell-based; conditions: cell-free supernatant, medium NB
Procedure: as §2, §3, §4

[7] = test system: Enterococcus faecalis (VRE) CCARM 0011; assay: Agar well diffusion assay; type: cell-based; conditions: cell-free supernatant, medium NB
Procedure: as §2, §3, §4

[8] = test system: Klebsiella pneumoniae subsp. pneumoniae KCCM 11418; assay: Agar well diffusion assay; type: cell-based; conditions: cell-free supernatant, medium NB
Procedure: as §2, §3, §4

[9] = test system: Bacillus licheniformis KCCM 12145; assay: Agar well diffusion assay; type: cell-based; conditions: cell-free supernatant, medium NB
Procedure: as §2, §3, §4

[10] = test system: Pseudomonas aeruginosa KCCM 11266; assay: Agar well diffusion assay; type: cell-based; conditions: cell-free supernatant, medium NB
Procedure: as §2, §3, §4

[11] = test system: Staphylococcus aureus KFRI 00188; assay: Agar well diffusion assay; type: cell-based; conditions: cell-free supernatant, medium NB
Procedure: as §2, §3, §4

[12] = test system: Lactobacillus johnsonii PF01 (our isolate); assay: Agar well diffusion assay; type: cell-based; conditions: cell-free supernatant, medium MRS
Procedure: as §2, §3, §4

[13] = test system: Salmonella pullorum KVCC-BA0702509; assay: Agar well diffusion assay; type: cell-based; conditions: cell-free supernatant, medium NB
Procedure: as §2, §3, §4

[14] = test system: Lactobacillus acidophilus KCCM 32820; assay: Agar well diffusion assay; type: cell-based; conditions: cell-free supernatant, medium MRS
Procedure: as §2, §3, §4

[15] = test system: Lactobacillus delbrueckii KCCM 11357; assay: Agar well diffusion assay; type: cell-based; conditions: cell-free supernatant, medium MRS
Procedure: as §2, §3, §4

[16] = test system: Listeria monocytogenes ATCC 19114; assay: Agar well diffusion assay; type: cell-based; conditions: cell-free supernatant, medium TSB
Procedure: as §2, §3, §4

[17] = test system: Salmonella enteritidis KVCC-BA0700654; assay: Agar well diffusion assay; type: cell-based; conditions: cell-free supernatant, medium NB
Procedure: as §2, §3, §4

[18] = test system: Streptococcus agalactiae ATCC 13813; assay: Agar well diffusion assay; type: cell-based; conditions: cell-free supernatant, medium TSB
Procedure: as §2, §3, §4

[19] = test system: Salmonella enteritidis KCCM 12021; assay: Agar well diffusion assay; type: cell-based; conditions: cell-free supernatant, medium NB
Procedure: as §2, §3, §4

[20] = test system: Bacillus cereus KCTC 1661; assay: Agar well diffusion assay; type: cell-based; conditions: cell-free supernatant, medium LB
Procedure: as §2, §3, §4

[21] = test system: Candida albicans KCTC 7122; assay: Agar well diffusion assay; type: cell-based; conditions: cell-free supernatant, medium PDA
Procedure: as §2, §3, §4

[22] = test system: Shigella flexneri KCCM 40414; assay: Agar well diffusion assay; type: cell-based; conditions: cell-free supernatant, medium NB
Procedure: as §2, §3, §4

[23] = test system: Streptococcus mutans ATCC 25175; assay: Agar well diffusion assay; type: cell-based; conditions: cell-free supernatant, medium BHI
Procedure: as §2, §3, §4

[24] = test system: Pseudomonas aeruginosa CCARM 2003; assay: Agar well diffusion assay; type: cell-based; conditions: cell-free supernatant, medium LB
Procedure: as §2, §3, §4

[25] = test system: Salmonella typhimurium KCCM 40253; assay: Agar well diffusion assay; type: cell-based; conditions: cell-free supernatant, medium NB
Procedure: as §2, §3, §4

[26] = test system: L. monocytogenes ATCC 19114; assay: Thermal stability of antimicrobial activity; type: physicochemical, Listeria monocytogenes; conditions: cooled to room temperature, residual activity vs before treatment, against L. monocytogenes ATCC 19114
Procedure: as §1

[27] = test system: L. monocytogenes ATCC 19114; assay: Mode of action, time-kill study (viable cell count); type: cell-based, Listeria monocytogenes; conditions: 80 AU/mL added to L. monocytogenes at 4.2 × 10^8 CFU/mL, mid-exponential phase, viable counts at 1-hour intervals, mean of three experiments
Procedure: To determine the mode of action of the bacteriocin, the crude bacteriocin was added at a final concentration of 80 AU/mL to the culture at the mid-exponential growth phase of L. monocytogenes ATCC 19114 in 20 mL of TSB medium. Viable cells were counted at 1-hour intervals for the next 8 hours. Viable cell counting was repeated in triplicate and the mean values were calculated.

proteinase-K = target: T1, proteinase-K (Parengyodontium album, UniProt P06873); assay: Effect of enzyme treatment on antimicrobial activity; type: in vitro ADME; conditions: Proteinase-K 10 mg/mL, 37°C, 2 h, then boiled 2 min; residual antimicrobial activity vs before treatment, against L. monocytogenes ATCC 19114
T1 construct: purchased Sigma (USA) and Takara (Japan)
Procedure: as §1

α-amylase = assay: as above; type: in vitro ADME; conditions: α-Amylase 10 mg/mL, 37°C, 2 h, then boiled 2 min; residual antimicrobial activity vs before treatment, against L. monocytogenes ATCC 19114
Procedure: as §1

pepsin = target: T2, pepsin (Sus scrofa, UniProt P00791); assay: as above; type: in vitro ADME; conditions: Pepsin 10 mg/mL, 37°C, 2 h, then boiled 2 min; residual antimicrobial activity vs before treatment, against L. monocytogenes ATCC 19114
T2 construct: purchased Sigma (USA) and Takara (Japan)
Procedure: as §1

trypsin = assay: as above; type: in vitro ADME; conditions: Trypsin 10 mg/mL, 37°C, 2 h, then boiled 2 min; residual antimicrobial activity vs before treatment, against L. monocytogenes ATCC 19114
Procedure: as §1

lipase = assay: as above; type: in vitro ADME; conditions: Lipase 10 mg/mL, 37°C, 2 h, then boiled 2 min; residual antimicrobial activity vs before treatment, against L. monocytogenes ATCC 19114
Procedure: as §1

α-chymotrypsin = target: T3, α-chymotrypsin (Bos taurus, UniProt P00766); assay: as above; type: in vitro ADME; conditions: α-Chymotrypsin 10 mg/mL, 37°C, 2 h, then boiled 2 min; residual antimicrobial activity vs before treatment, against L. monocytogenes ATCC 19114
T3 construct: purchased Sigma (USA) and Takara (Japan)
Procedure: as §1

T1 sequence (P06873 106-384): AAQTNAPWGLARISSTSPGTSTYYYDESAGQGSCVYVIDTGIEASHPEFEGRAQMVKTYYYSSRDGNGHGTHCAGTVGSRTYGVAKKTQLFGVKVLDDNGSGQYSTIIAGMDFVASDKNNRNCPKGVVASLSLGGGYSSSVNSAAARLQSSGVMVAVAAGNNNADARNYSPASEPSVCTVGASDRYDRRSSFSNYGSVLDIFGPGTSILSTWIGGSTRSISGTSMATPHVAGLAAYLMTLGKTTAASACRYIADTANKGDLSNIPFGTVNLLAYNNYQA
T2 sequence (P00791 60-385): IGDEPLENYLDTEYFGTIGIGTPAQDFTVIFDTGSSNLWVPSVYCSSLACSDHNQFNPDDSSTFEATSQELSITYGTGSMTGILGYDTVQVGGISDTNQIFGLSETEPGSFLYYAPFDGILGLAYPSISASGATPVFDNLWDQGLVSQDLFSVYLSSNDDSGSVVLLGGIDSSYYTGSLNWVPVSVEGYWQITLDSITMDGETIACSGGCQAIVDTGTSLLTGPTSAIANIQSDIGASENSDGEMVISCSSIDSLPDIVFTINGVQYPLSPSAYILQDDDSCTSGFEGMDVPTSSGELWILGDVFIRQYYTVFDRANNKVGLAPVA

NH2-X-Ala-Trp-Tyr-Asp-Ile-Arg-Lys-Leu-Gly-Asn-Lys-Gly-Ala [RX7 bacteriocin, Bacteriocin of approximately 5 kDa produced by Bacillus amyloliquefaciens RX7; homologous to lantibiotic haloduracin A1]
20%: Residual activity (%) ([26]; heat 121°C/15 min)
80%: Residual activity (%) ([1]; Butanol 10% (v/v)) | Residual activity (%) ([1]; Chloroform 10% (v/v)) | Residual activity (%) ([1]; Methanol 10% (v/v)) | Residual activity (%) ([2]; pH 1 (1 N HCl/1 N NaOH), readjusted to pH 7) | Residual activity (%) ([2]; pH 10 (1 N HCl/1 N NaOH), readjusted to pH 7) | Residual activity (%) ([26]; heat 100°C/30 min)
2 h: incubation time for complete bactericidal action (no colony formation on TSB agar) [27]
100%: Residual activity (%) ([2]; pH 3 (1 N HCl/1 N NaOH), readjusted to pH 7) | Residual activity (%) ([2]; pH 4 (1 N HCl/1 N NaOH), readjusted to pH 7) | Residual activity (%) ([2]; pH 5 (1 N HCl/1 N NaOH), readjusted to pH 7) | Residual activity (%) ([2]; pH 6 (1 N HCl/1 N NaOH), readjusted to pH 7) | Residual activity (%) ([2]; pH 7 (1 N HCl/1 N NaOH)) | Residual activity (%) ([2]; pH 8 (1 N HCl/1 N NaOH), readjusted to pH 7) | Residual activity (%) ([26]; heat 4°C/30 min) | Residual activity (%) ([26]; heat 37°C/30 min) | Residual activity (%) ([26]; heat 50°C/30 min) | Residual activity (%) ([26]; heat 80°C/30 min) | Residual activity (%) (α-amylase) | Residual activity (%) (pepsin) | Residual activity (%) (lipase)
+++ (less than 30 mm): Inhibition zone (mm) [16]
+ (less than 10 mm): Inhibition zone (mm) [3] | Inhibition zone (mm) [4] | Inhibition zone (mm) [6] | Inhibition zone (mm) [8] | Inhibition zone (mm) [12] | Inhibition zone (mm) [13] | Inhibition zone (mm) [14] | Inhibition zone (mm) [15] | Inhibition zone (mm) [23]
0%: Residual activity (%) (proteinase-K) | Residual activity (%) (trypsin) | Residual activity (%) (α-chymotrypsin)
3–8: pH range in which full activity was observed ([2]; 2 h at 37°C at the given pH, readjusted to pH 7, activity against L. monocytogenes ATCC 19114)
++ (less than 20 mm): Inhibition zone (mm) [5] | Inhibition zone (mm) (Escherichia coli K88) | Inhibition zone (mm) [7] | Inhibition zone (mm) [9] | Inhibition zone (mm) [10] | Inhibition zone (mm) [11] | Inhibition zone (mm) [17] | Inhibition zone (mm) [18] | Inhibition zone (mm) [19] | Inhibition zone (mm) [20] | Inhibition zone (mm) [21] | Inhibition zone (mm) [22] | Inhibition zone (mm) [24] | Inhibition zone (mm) [25]
90%: Residual activity (%) ([1]; Acetone 10% (v/v)) | Residual activity (%) ([1]; Acetonitrile 10% (v/v)) | Residual activity (%) ([1]; Ethanol 10% (v/v)) | Residual activity (%) ([2]; pH 2 (1 N HCl/1 N NaOH), readjusted to pH 7) | Residual activity (%) ([2]; pH 9 (1 N HCl/1 N NaOH), readjusted to pH 7)
